{
  "source": "patent US20240124607A1",
  "about": "(Merck Sharp & Dohme, published 2024)",
  "binders": {"B1": {"name": "AB0621 F3' CEACAM5 TriNKET (bispecific antibody, human IgG1, kappa)", "chain": "DIVMTQSPDSLAVSLGERATINCKSSHSLLYGNFQNNYLAWYQQKPGQPPKLLIYWASTRESGVPDRFSGSGSGTDFTLTISSLQAEDVAVYYCQQYYSYPYTFGCGTKLEIKGGGGSGGGGSGGGGSGGGGSQVQLVQSGAEVKKPGASVKVSCKASGYTFTAYTIHWVRQAPGQCLEWMGYINPSSGYTEYNQKFKDRTTLTADTSISTAYMELSRLRSDDTAVYYCTREGGLLWFDYWGQGTLVTVSSGSDKTHTCPPCPAPELLGGPSVFLFPPKPKDTLMISRTPEVTCVVVDVSHEDPEVKFNWYVDGVEVHNAKTKPREEQYNSTYRVVSVLTVLHQDWLNGKEYKCKVSNKALPAPIEKTISKAKGQPREPRVYTLPPCRDELTKNQVSLTCLVKGFYPSDIAVEWESNGQPENNYKTTPPVLVSDGSFTLYSKLTVDKSRWQQGNVFSCSVMHEALHNHYTQKSLSLSPG", "heavy": "EVQLVESGGGLVKPGGSLRLSCAASGFTFSSYSMNWVRQAPGKGLEWVSSISSSSSYIYYADSVKGRFTISRDNAKNSLYLQMNSLRAEDTAVYYCARGAPIGAAAGWFDPWGQGTLVTVSSASTKGPSVFPLAPSSKSTSGGTAALGCLVKDYFPEPVTVSWNSGALTSGVHTFPAVLQSSGLYSLSSVVTVPSSSLGTQTYICNVNHKPSNTKVDKKVEPKSCDKTHTCPPCPAPELLGGPSVFLFPPKPKDTLMISRTPEVTCVVVDVSHEDPEVKFNWYVDGVEVHNAKTKPREEQYNSTYRVVSVLTVLHQDWLNGKEYKCKVSNKALPAPIEKTISKAKGQPREPQVCTLPPSRDELTENQVSLTCLVKGFYPSDIAVEWESNGQPENNYKTTPPVLDSDGSFFLYSWLTVDKSRWQQGNVFSCSVMHEALHNHYTQKSLSLSPG", "light": "DIQMTQSPSSVSASVGDRVTITCRASQGISSWLAWYQQKPGKAPKLLIYAASSLQSGVPSRFSGSGSGTDFTLTISSLQPEDFATYYCQQGVSFPRTFGGGTKVEIKRTVAAPSVFIFPPSDEQLKSGTASVVCLLNNFYPREAKVQWKVDNALQSGNSQESVTEQDSKDSTYSLSSTLTLSKADYEKHKVYACEVTHQGLSSPVTKSFNRGEC"}, "B2": {"name": "AB0411 F3' CEACAM5 TriNKET (bispecific antibody, human IgG1, kappa)", "chain": "DIQLTQSPATLSVSPGERATLSCRASQSVSSSYLAWYQQKPGQAPRLLIYGASSRATGIPDRFSGSGSGTDFTLTISRLEPEDFAVYYCQQYNNWPLTFGCGTKVEIKGGGGSGGGGSGGGGSGGGGSQVQLVQSGGGLVQPGGSLRLSCAASGFTFTSYAMSWVRQAPGKCLEWVSAISGTGDSTFYADSVKGRFTFSRDNSKNTLYLQMNSLRAEDTAVYYCAKDLGWLQYGLFDYWGQGTLVTVSSGSDKTHTCPPCPAPELLGGPSVFLFPPKPKDTLMISRTPEVTCVVVDVSHEDPEVKFNWYVDGVEVHNAKTKPREEQYNSTYRVVSVLTVLHQDWLNGKEYKCKVSNKALPAPIEKTISKAKGQPREPRVYTLPPCRDELTKNQVSLTCLVKGFYPSDIAVEWESNGQPENNYKTTPPVLVSDGSFTLYSKLTVDKSRWQQGNVFSCSVMHEALHNHYTQKSLSLSPG", "heavy": "B1 heavy", "light": "B1 light"}, "B3": {"name": "AB0264 F3' CEACAM5 TriNKET (bispecific antibody, human IgG1, kappa)", "chain": "B1 chain with S210P", "heavy": "B1 heavy", "light": "B1 light"}},
  "key": {"[1]": {"biological_target": "T1, human CEACAM1 on Ba/F3 cells (human, UniProt P13688 35-526)", "T1 construct": "whole, on cells", "T1 sequence (looked up)": "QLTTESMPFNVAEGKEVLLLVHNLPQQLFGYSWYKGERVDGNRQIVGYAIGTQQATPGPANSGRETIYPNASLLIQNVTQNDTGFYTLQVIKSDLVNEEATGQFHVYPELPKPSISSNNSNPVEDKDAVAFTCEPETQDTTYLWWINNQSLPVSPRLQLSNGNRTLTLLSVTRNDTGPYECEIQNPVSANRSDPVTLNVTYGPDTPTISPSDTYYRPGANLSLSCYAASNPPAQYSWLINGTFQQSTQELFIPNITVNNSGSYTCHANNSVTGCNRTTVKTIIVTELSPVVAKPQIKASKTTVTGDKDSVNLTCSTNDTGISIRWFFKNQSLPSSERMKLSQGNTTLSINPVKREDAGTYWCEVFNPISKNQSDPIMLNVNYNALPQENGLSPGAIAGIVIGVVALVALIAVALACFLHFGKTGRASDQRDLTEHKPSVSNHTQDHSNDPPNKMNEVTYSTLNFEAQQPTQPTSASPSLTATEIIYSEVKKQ", "assay": "flow cytometry on Ba/F3 cells expressing human CEACAM1, fold over background (FOB), 5-fold dilutions from 1600 nM", "protocol": "To examine the binding specificity of the TriNKETs to CEACAM5 compared to other CEACAM family members, Ba/F3 cells were engineered to express one of human CEACAM1, CEACAM6, CEACAM8, or cynomolgus CEACAM5. CEACAM5 TriNKETs were evaluated by flow cytometry starting at 1600 nM followed by 7 5-fold dilutions."}, "Human CEACAM1": {"biological_target": "T2, Human CEACAM1 (human, UniProt P13688 35-428, limits assumed)", "T2 sequence (looked up)": "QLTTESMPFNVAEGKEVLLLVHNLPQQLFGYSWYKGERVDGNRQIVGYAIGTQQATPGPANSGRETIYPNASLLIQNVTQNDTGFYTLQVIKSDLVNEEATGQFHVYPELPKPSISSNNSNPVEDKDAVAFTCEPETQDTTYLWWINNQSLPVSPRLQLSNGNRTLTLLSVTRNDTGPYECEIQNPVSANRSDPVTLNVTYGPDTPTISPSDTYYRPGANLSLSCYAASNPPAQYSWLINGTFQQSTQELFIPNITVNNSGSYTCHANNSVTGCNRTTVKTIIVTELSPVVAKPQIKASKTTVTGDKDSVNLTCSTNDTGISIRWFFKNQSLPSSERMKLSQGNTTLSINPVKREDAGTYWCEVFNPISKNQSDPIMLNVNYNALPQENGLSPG", "assay": "SPR, 37C, pH 7.4", "protocol": "To determine the affinity and cross-reactivity of CEACAM5 TriNKET molecules, AB0411, AB0466, or AB0621 TriNKETs were captured using an anti-human Fc capture antibody (Cytiva, #BR100839) immobilized onto a Biacore CM5 standard surface sensor chip following manufacturer instructions. Human or cynomolgus CEACAM5 were titrated over captured AB0411, AB0466, and AB0621 as 2-fold serial dilutions starting from 300 nM. Association was monitored for 300 sec and dissociation was monitored for 600 sec. The assay was run at 37° C. at pH 7.4 and 6.0. The surface of the CM5 chip was regenerated with 10 mM glycine pH 1.5 for 20 sec at 100 μL/min.\nBinding to human and cynomolgus CEACAM1, 6, and 8 was assessed by SPR using the same protocol as for CEACAM5 but using up to 600 and 1200 nM for titration of each protein. There were no detectable binding signals at these concentrations for AB0621. In contrast, reproducible weak binding signals were detected for AB0411 and AB0466, but these two TriNKETs also bound to different epitope(s) on the N-terminus of CEACAM5. Typical weak binding sensorgrams for AB0411 and AB0466 against human CEACAM1 and 6 indicated weak but notable signals compared to AB0621. […]"}, "human CEACAM5 on cells [2]": {"biological_target": "T3, human CEACAM5 on cells (human, UniProt P06731 35-685)", "T3 construct": "tumour cell lines with endogenous CEACAM5, or B16F10 engineered to express hCEACAM5; also called CEACAM5 on MKN-45, HPAF-II, SK-CO-1, LoVo, BxPC-3, Kato-III, LS-174T, ZR-75-30; hCEACAM5-B16F10", "T3 sequence": "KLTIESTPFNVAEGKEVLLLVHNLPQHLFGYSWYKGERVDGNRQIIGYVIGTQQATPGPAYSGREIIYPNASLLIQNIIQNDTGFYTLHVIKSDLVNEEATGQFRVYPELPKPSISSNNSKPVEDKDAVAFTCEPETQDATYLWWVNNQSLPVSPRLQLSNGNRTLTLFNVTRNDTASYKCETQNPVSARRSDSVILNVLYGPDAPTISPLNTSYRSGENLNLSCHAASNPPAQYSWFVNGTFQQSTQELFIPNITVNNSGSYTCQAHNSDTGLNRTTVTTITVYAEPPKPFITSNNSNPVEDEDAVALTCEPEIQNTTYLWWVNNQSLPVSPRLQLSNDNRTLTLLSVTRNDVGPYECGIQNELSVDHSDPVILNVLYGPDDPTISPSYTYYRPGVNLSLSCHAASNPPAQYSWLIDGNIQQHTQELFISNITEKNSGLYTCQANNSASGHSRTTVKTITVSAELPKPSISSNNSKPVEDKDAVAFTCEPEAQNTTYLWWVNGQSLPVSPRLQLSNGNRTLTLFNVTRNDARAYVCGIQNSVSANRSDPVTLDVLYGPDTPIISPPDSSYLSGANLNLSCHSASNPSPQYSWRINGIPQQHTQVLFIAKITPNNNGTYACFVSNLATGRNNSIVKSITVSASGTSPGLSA", "assay": "flow cytometry, MKN-45 cells"}, "human CEACAM5 on cells [3]": {"biological_target": "T3, human CEACAM5 on cells", "assay": "flow cytometry, SK-CO-1 cells"}, "human CEACAM5 on cells [4]": {"biological_target": "T3, human CEACAM5 on cells", "assay": "flow cytometry, LoVo cells"}, "human CEACAM5 on cells [5]": {"biological_target": "T3, human CEACAM5 on cells", "assay": "flow cytometry, Kato-III cells"}, "human CEACAM5 on cells [6]": {"biological_target": "T3, human CEACAM5 on cells", "assay": "flow cytometry, BxPC-3 cells"}},
  "note": "Where a chain is given by its changes, count along the chain named.",
  "data": [
    {"binder": "B1", "values": [
      {"measurement": "binding result", "setting": "[1]", "result": "no binding (tested: 1600 nM)"},
      {"measurement": "binding result", "setting": "Human CEACAM1", "result": "no binding (tested: up to 600 and 1200 nM)"}
    ]},
    {"binder": "B2", "values": [
      {"measurement": "EC50", "setting": "human CEACAM5 on cells [2]", "result": 9.05, "unit": "nM"},
      {"measurement": "Max FOB", "setting": "human CEACAM5 on cells [2]", "result": 107, "unit": "fold over background"},
      {"measurement": "EC50", "setting": "human CEACAM5 on cells [3]", "result": 8.67, "unit": "nM"},
      {"measurement": "Max FOB", "setting": "human CEACAM5 on cells [3]", "result": 37, "unit": "fold over background"},
      {"measurement": "EC50", "setting": "human CEACAM5 on cells [4]", "result": 3.25, "unit": "nM"},
      {"measurement": "Max FOB", "setting": "human CEACAM5 on cells [4]", "result": 19, "unit": "fold over background"},
      {"measurement": "EC50", "setting": "human CEACAM5 on cells [5]", "result": 1.17, "unit": "nM"},
      {"measurement": "Max FOB", "setting": "human CEACAM5 on cells [5]", "result": 5, "unit": "fold over background"},
      {"measurement": "EC50", "setting": "human CEACAM5 on cells [6]", "result": 4.28, "unit": "nM"},
      {"measurement": "Max FOB", "setting": "human CEACAM5 on cells [6]", "result": 19, "unit": "fold over background"}
    ]},
    {"binder": "B3", "values": [
      {"measurement": "EC50", "setting": "human CEACAM5 on cells [2]", "result": 20.7, "unit": "nM"},
      {"measurement": "Max FOB", "setting": "human CEACAM5 on cells [2]", "result": 60, "unit": "fold over background"},
      {"measurement": "EC50", "setting": "human CEACAM5 on cells [3]", "result": 104, "unit": "nM"},
      {"measurement": "Max FOB", "setting": "human CEACAM5 on cells [3]", "result": 42, "unit": "fold over background"},
      {"measurement": "binding result", "setting": "[1]", "result": "no binding (tested: 1600 nM)"},
      {"measurement": "binding result", "setting": "Human CEACAM1", "result": "no binding (tested: up to 600 and 1200 nM)"},
      {"measurement": "EC50", "setting": "human CEACAM5 on cells [4]", "result": 22.1, "unit": "nM"},
      {"measurement": "Max FOB", "setting": "human CEACAM5 on cells [4]", "result": 14, "unit": "fold over background"},
      {"measurement": "EC50", "setting": "human CEACAM5 on cells [5]", "result": 13.3, "unit": "nM"},
      {"measurement": "Max FOB", "setting": "human CEACAM5 on cells [5]", "result": 4, "unit": "fold over background"},
      {"measurement": "EC50", "setting": "human CEACAM5 on cells [6]", "result": 30.5, "unit": "nM"},
      {"measurement": "Max FOB", "setting": "human CEACAM5 on cells [6]", "result": 12, "unit": "fold over background"}
    ]}
  ]
}
